From US20030108991

Target: T1, N-Succinyl-Ala-Ala-Pro-Phe-p-nitroanilide
T1 chain: AAPF

B1: soluble keratinase (Bacillus licheniformis PWD-1 keratinase) (protein)
chain: AQTVPYGIPLIKADKVQAQGFKGANVKVAVLDTGIQASHPDLNVVGGASFVAGEAYNTDGNGHGTHVAGTVAALDNTTGVLGVAPSVSLYAVKVLNSSGSGSYSGIVSGIEWATTNGMDVINMSLGGASGSTAMKQAVDNAYARGVVVVAAAGNSGSSGNTNTIGYPAKYDSVIAVGAVDSNSNRASFSSVGAELEVMAPGAGVYSTYPTNTYATLNGTSMVSPHVAGAAALILSKHPNLSASQVRNRLSSTATYLGSSFYYGKGLINVEAAAQ
For B1, the Km was 220 µM.
